Assay results reported in patent US20260132208A1 (DOMAIN THERAPEUTICS, published 2026).
“And” between values parts separate entries of the source, which are not always exact repeats. Identical values can stand only once. Like-named read-outs stand apart in the source and are kept apart here.

How the values were obtained:
human CCR8 [1] = biological target: T1, human CCR8 (human, UniProt P51685 1-355); test: cell-based or functional assay
human CCR8 [2] = biological target: T1, human CCR8; test: flow cytometry, inhibition of hCCL1-AF647 (10 nM) binding to hCCR8-CHO cells
Method in brief: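 hCCR8-transfected CHO cells preincubated 30 min at 4 °C with anti-CCR8 mAb (8 concentrations, top 10 μg/mL, 1/3 dilutions), washed, then exposed to labelled CCL1. Bound CCL1 quantified by flow cytometry; IC₅₀ of binding blockade from sigmoidal variable-slope fit.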

human CCR8 [3] = biological target: T1, human CCR8; test: flow cytometry competition on hCCR8 transfected CHO cells; blocked ligand hCCL1-AF647 [cont.]
Procedure: The hCCR8 transfected CHO cell line was dispatched at a density of 1.105 per well in a 96-well plate. Cells were incubated for 30 min at 4° C. with or without anti-CCR8 mAb tested at 10 μg/mL then diluted at 1/3. Unbound antibodies were washed away with PBS (Gibco, Villebon-sur-yvette, France) supplemented by 2% Fetal Bovine Serum (Invitrogen by Thermofisher Scientific, Illkirch-Graffenstaden, France) and 2 mM EDTA. […] After washing unbound ligands, CCL1 bound detection is quantified on a MacsQuant16 (Miltenyi, Gladbach, Germany) (R1 channel, 5 000 events per acquisition).
For IC₅₀ determination, a concentration response curve is performed using 8 concentrations of mAb. Curves are fitted and IC₅₀ of CCL1 binding blocking activity is calculated using the sigmoidal dose-response (variable slope) model on GraphPad Prism 9 (GraphPad Software, San Diego, CA, USA).

pm5 = biological target: T2, pm5 (Y15 and Y17 sulfated; Y16 not sulfated); test: ELISA on coated peptide [cont.]
T2 construct: also called sulfated CCR8 N-terminal peptide pm5
T2 sequence (peptide, as listed by the source): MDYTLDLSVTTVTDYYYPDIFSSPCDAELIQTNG
Method in brief: (§1)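 Optical density after 15 min TMB development is the read-out, correlated with antibody binding to the coated peptide. Plates carried peptide at 500 ng/ml in carbonate/bicarbonate buffer. Antibodies were incubated at 1 μg/mL and at a tenfold dilution for 90 min at room temperature, followed by washes.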

pm8 = biological target: T3, pm8 (Y15, Y16 and Y17 sulfated); test: ELISA on coated peptide [cont.]
T3 construct: also called sulfated CCR8 N-terminal peptide pm8
T3 sequence (peptide, as listed by the source): as above
Method in brief: as §1

pm6 = biological target: T4, pm6 (Y16 and Y17 sulfated; Y15 not sulfated); test: ELISA on coated peptide [cont.]
T4 construct: also called sulfated CCR8 N-terminal peptide pm6
T4 sequence (peptide, as listed by the source): as above
Method in brief: as §1

pm3 = biological target: T5, pm3 (Y17 sulfated; Y15 and Y16 not sulfated); test: ELISA on coated peptide [cont.]
T5 construct: also called sulfated CCR8 N-terminal peptide pm3
T5 sequence (peptide, as listed by the source): as above
Method in brief: as §1

human CCR8 [4] = biological target: T1, human CCR8; test: flow cytometry, hCCR8-transfected CHO-K1 cells
Method in brief: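 Bound mAb was detected with Alexa Fluor 488 anti-mouse IgG or PE anti-human IgG Fc by flow cytometry, with isotype controls. EC50 came from a four-parameter fit.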

human CCR8 [5] = biological target: T1, human CCR8; test: cell-based or functional assay; remark: listed apart in the source
human CCR8 [6] = biological target: T1, human CCR8; test: cell-based or functional assay; remark: listed apart in the source
[7] = biological target: T6, human CCR8 with a SNAP-tag at the N-terminus (human, UniProt P51685 1-355, SNAP-tag labelled covalently with Lumi4-Terbium); test: HTRF Tag-lite, inhibition of hCCL1-AF647 binding to SNAP-hCCR8 on HEK-293 cells
T6 construct: also called hCCR8 SNAP-tag; CCR8 SNAP-tag
Procedure: (§2) The inhibition of CCL1 binding to hCCR8 was evaluated with the Tag-Lite® technology from Cisbio (Revvity). Human CCR8 is engineered with a SNAP-tag at the N-terminus of the GPCR. hCCR8 SNAP-tag is transiently transfected on HEK-293 cell line using FuGene® (Promega, Madison, WI, USA). 48 hours after transfection, cells are labeled with the substrate Lumi4-Terbium® (Cisbio, Codolet, France) which covalently reacts with the SNAP-tag, for 1 h at 37° C. Thawed or freshly labeled cells are plated in a 384 low volume white plate (GREINER Bio-One, Courtaboeuf, France) (10000 cells/well/10 μl). […] The Kd was previously obtained in a saturation binding assay on the same cells. […] The plate is next incubated at 21° C. for 2 h. Detection of HTRF signal is performed on the multiplate reader EnVision (PerkinElmer, Waltham, MA, USA). The HTRF (665/620) ratio is calculated by EnVision software, the data exported are considered as the total binding. The specific binding is calculated then by subtracting the non-specific signal from the total binding. The Ki and IC₅₀ are calculated using the “One site-Fit Ki” and “One site-FitlogIC50” from GraphPad Prism 9 (Graphpad Software, San Diego, CA, USA), respectively.

pm4 = biological target: T7, pm4 (sulfated tyrosine(s) among Y15, Y16, Y17; which ones is not told (the underlining of Table 1 is lost in the text)); test: ELISA on coated peptide [cont.]
T7 construct: also called sulfated CCR8 N-terminal peptide pm4
T7 sequence (peptide, as listed by the source): as above
Method in brief: as §1

pm1 = biological target: T8, pm1 (sulfated tyrosine(s) among Y15, Y16, Y17; which ones is not told (the underlining of Table 1 is lost in the text)); test: ELISA on coated peptide [cont.]
T8 construct: also called sulfated CCR8 N-terminal peptide pm1
T8 sequence (peptide, as listed by the source): as above
Method in brief: as §1

pm2 = biological target: T9, pm2 (sulfated tyrosine(s) among Y15, Y16, Y17; which ones is not told (the underlining of Table 1 is lost in the text)); test: ELISA on coated peptide [cont.]
T9 construct: also called sulfated CCR8 N-terminal peptide pm2
T9 sequence (peptide, as listed by the source): as above
Method in brief: as §1

[8] = biological target: T6, human CCR8 with a SNAP-tag at the …; test: HTRF Tag-lite, inhibition of hCCL1-AF647 binding to SNAP-hCCR8 on HEK-293 cells; remark: listed apart in the source
Procedure: as §2

B1: anti-CCR8 mAb 1-9 (antibody, V domains shown)
VH: EVQLVESGGGLVQPKGSLKLSCAASGFTFNAYAMNWVRQAPGKGLEWLARIRSKSNNYATYYADSVKDRFTISRDDSQSMFYLQMNNLKSEDTAMYYCVRGREAYYRYDGGYYAMDYWGQGTSVTVSS
VL: EIVMTQAALSAPVTPGESVSMSCRSSKSLLHSNGNTYLYWFLQRPGQSPQLLIYRMSNLASGVPDRFSGSGSGTAFTLRISRVEAEDVGVYYCMQHLEYPFTFGSGTKLEIK
notes: Murine hybridoma mAb
IC50 of CCL1-induced hCCR8 Gi2 signaling (BRET, HEK-293) (human CCR8 [1]): 0.015 µg/mL and 0.1 nM
IC50 (human CCR8 [2]): ~0.91 µg/mL and 6.09 nM
IC50 (read off the curve) (human CCR8 [3]): ~0.9 µg/mL
binding result (pm5): binds
binding result (pm8): binds
binding result (pm6): binds
binding result (pm3): binds
% positive cells (human CCR8 [4]): 81.8%
MFI fold change to isotype ctrl (human CCR8 [4]): 16.2 fold
residual hCCL1 (100 nM) Gi2 response, protocol #2, mAb 0.08 µg/mL (human CCR8 [5]): 88%
residual hCCL1 (100 nM) Gi2 response, protocol #2, mAb 0.4 µg/mL (human CCR8 [5]): 57%
residual hCCL1 (100 nM) Gi2 response, protocol #2, mAb 10 µg/mL (human CCR8 [5]): 46%
residual hCCL1 (100 nM) Gi2 response, protocol #3, mAb 0.05 µg/mL (human CCR8 [5]): 73%
residual hCCL1 (100 nM) Gi2 response, protocol #3, mAb 0.5 µg/mL (human CCR8 [5]): 36%
residual hCCL1 (100 nM) Gi2 response, protocol #3, mAb 5 µg/mL (human CCR8 [5]): 36%
extrapolated top plateau of hCCL1 curve with 5 µg/mL mAb, protocol #3 (human CCR8 [6]): 533000 % of hCCL1 (100 nM)

B2: anti-CCR8 mAb 1-19 (antibody, human IgG1, kappa, V domains shown)
VH: EVQLVESGGGLVQPGRSLRLSCTASGFTFNTYAMNWVRQAPGKGLEWVARIRSKSNNYATYYAASVKGRFTISRDDSKSIAYLQMNSLKTEDTAVYYCVRGREAYYRYDGGYYAMDVWGQGTTVTVSS
VL: DIVMTQAAPSLPVTPGESASISCRSSKSLLHSNGNTYLYWFLQKPGQSPQLLIYRMSNLASGVPDRFSGSGSGTAFTLKISRVEAEDVGVYYCMQHLEYPFTFGSGTKLEIKR
notes: Humanized mAb, human IgG1 / kappa
IC50 of CCL1-induced hCCR8 Gi2 signaling (BRET, HEK-293) (human CCR8 [1]): 0.048 µg/mL and 0.318 nM
IC50 [7]: 0.1 to 1 nM
binding result (pm4): binds
binding result (pm1): binds
binding result (pm2): binds
binding result (pm5): binds
binding result (pm8): binds
binding result (pm6): binds
binding result (pm3): binds
IC50 [8]: 0.02 µg/mL
Ki [8]: 0.01 µg/mL and 0.06 nM
